The text below walks through data of US20230374083A1.

Data set [1] deals with trastuzumab. Briefly: cell-based or functional assay.
Data set [2] concerns the target IgG1 in the sera of humans.
Data set [3] addresses IgG1 in the sera of mice.
The target in data set [4] is human IVIg (an intravenous human immunoglobulin).

On to IdeE R280H (enzyme), for which, in data set [1], the cleavage of human IgG1, SDS-PAGE of cleavage products (fold of wild-type IdeE) is over 2.

For IdeE T8D (enzyme), the cleavage of human IgG1, SDS-PAGE of cleavage products (fold of wild-type IdeE) in data set [1] is over 2.

As for IdeE A59V (enzyme), the cleavage of human IgG1, SDS-PAGE of cleavage products (fold of wild-type IdeE) in data set [1] is over 2.

Turning to IdeE A59L (enzyme), the cleavage of human IgG1, SDS-PAGE of cleavage products (fold of wild-type IdeE) in data set [1] was over 2.

Turning to IdeE T8W (enzyme), the cleavage of human IgG1, SDS-PAGE of cleavage products (fold of wild-type IdeE) in data set [1] is over 2.

IdeE T24A (enzyme) yielded a cleavage of human IgG1, SDS-PAGE of cleavage products (fold of wild-type IdeE) in data set [1] of over 2.

As for IdeE E97D (enzyme), the cleavage of human IgG1, SDS-PAGE of cleavage products (fold of wild-type IdeE) in data set [1] is over 2.

B1: E97D_del18 (protein)
chain: MITSVWTKGVTPLTPEQFRYNNEDVIHAPYLAHQGWYDITKAFDGKDNLLCGAATAGNMLHWWFDQNKTEIEAYLSKHPDKQKIIFNNQELFDLKAAIDTKDSQTNSQLFNYFRDKAFPNLSARQLGVMPDLVLDMFINGYYLNVFKTQSTDVNRPYQDKDKRGGIFDAVFTRGDQTTLLTARHDLKNKGLNDISTIIKQELTEGRALALSHTYANVSISHVINLWGADFNAEGNLEAIYVTDSDANASIGMKKYFVGINAHRHVAISAKKIEGENIGAQVLGLFTLSSGKDIWQKLSHHHHHH
Consider B1, for which the “cleavage of serum IgG in vitro, reducing SDS-PAGE (25 kD Fc fragment)” value in data set [2] is “E97D_del18 can effectively and specifically cleave IgG1 in the sera of humans”; in data set [3], “has very low or no activity of cleaving IgG1 in the sera of mice”. Further, the “cleavage of human IVIg in mouse serum or plasma in vitro, non-reducing SDS-PAGE” value in data set [4] was “E97D_del18 can effectively cleave human IVIg in both the sera and plasmas of mice”.
